Experimental findings from the supplement of paper PMC5998384 are described below.

Data set [1] deals with HeLa Kyoto. Description: solubility in G1/S (NP-40 vs SDS abundance) (log2 ratio); higher = more soluble. Conditions: cell cycle stage: G1/S.
The test system of data set [2] is HeLa Kyoto. Nature of the data set: melting temperature (median over replicates), in situ; higher = more thermally stable.
In data set [3] the test system is HeLa Kyoto. Description: thermal stability score vs G1/S (z-score of summed log2 fold changes over temperatures); higher = more thermally stable than in G1/S.
The test system of data set [4] is HeLa Kyoto. Description: solubility change mitosis vs G1/S (difference of NP-40 vs SDS log2 ratios) (log2 ratio difference); higher = more soluble in mitosis.
Where [5] appears, read: cell cycle stage: early G1 (4.5 h after nocodazole release).
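Throughout, for melting temperature (median over replicates), in situ: HeLa Kyoto cells synchronized by double thymidine or nocodazole block, proteins quantified by TMT10plex mass spectrometry, three independent biological replicates.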
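Throughout, for solubility change mitosis vs G1/S (difference of NP-40 vs SDS log2 ratios): synchronized HeLa Kyoto cells (double thymidine block for G1/S, nocodazole release for mitosis), protein amounts in NP-40 versus SDS lysates quantified by mass spectrometry, three biological replicates.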
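Throughout, for solubility in G1/S (NP-40 vs SDS abundance): HeLa Kyoto cells arrested at G1/S by double thymidine block, proteins quantified by TMT10plex mass spectrometry in mild NP-40 versus SDS extracts, three biological replicates.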
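Throughout, for thermal stability score vs G1/S (z-score of summed log2 fold changes over temperatures): synchronized HeLa Kyoto cells, proteins quantified by TMT10plex mass spectrometry, three biological replicates, mitosis taken 0.5 h after nocodazole release, G1/S directly after double thymidine block.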

On to THOC2, for which the “solubility in G1/S (log2)” value in the data set with HeLa Kyoto [1] is -0.681. Moreover, the melting temperature in the data set on HeLa Kyoto [2] (cell cycle stage: G1/S) turned out to be 48.6 °C; in the data set with HeLa Kyoto [2] (cell cycle stage: mitosis) it was 49.5 °C. The thermal stability score in the data set with HeLa Kyoto [3] (setting [5]) is -3.49; with HeLa Kyoto [3] (cell cycle stage: mitosis), -0.552. Besides, the “solubility change mitosis (log2)” value with HeLa Kyoto [4] was 0.221.

As to CCDC88A, in the data set on HeLa Kyoto [1], the “solubility in G1/S (log2)” value was found to be 0.124. The melting temperature with HeLa Kyoto [2] (cell cycle stage: G1/S) and in the data set on HeLa Kyoto [2] (cell cycle stage: mitosis) was 49 °C throughout. Besides, the thermal stability score with HeLa Kyoto [3] (setting [5]) was -0.404; in the data set on HeLa Kyoto [3] (cell cycle stage: mitosis) it was 1.05. Besides, in the data set on HeLa Kyoto [4], the “solubility change mitosis (log2)” value was -0.1.

In the case of “MASEDIAKLAETLAKTQVAGGQLSFKGKSLKLNTAEDAKDVIKEIEDFDSLEALRLEGNTVGVEAARVIAKALEKKSELKRCHWSDMFTGRLRTEIPPALISLGEGLITAGAQLVELDLSDNAFGPDGVQGFEALLKSSACFTLQELKLNNCGMGIGGGKILAAALTECHRKSSAQGKPLALKVFVAGRNRLENDGATALAEAFRVIGTLEEVHMPQNGINHPGITALAQAFAVNPLLRVINLNDNTFTEKGAVAMAETLKTLRQVEVINFGDCLVRSKGAVAIADAIRGGLPKLKELNLSFCEIKRDAALAVAEAMADKAELEKLDLNGNTLGEEGCEQLQEVLEGFNMAKVLASLSDDEDEEEEEEGEEEEEEAEEEEEEDEEEEEEEEEEEEEEPQQRGQGEKSATPSRKILDPNTGEPAPVLSSPPPADVSTFLAFPSPEKLLRLGPKSSVLIAQQTDTSDPEKVVSAFLKVSSVFKDEATVRMAVQDAVDALMQKAFNSSSFNSNTFLTRLLVHMGLLKSEDKVKAIANLYGPLMALNHMVQQDYFPKALAPLLLAFVTKPNSALESCSFARHSLLQTLYKV [RANGAP1]”, in the data set on HeLa Kyoto [1], the “solubility in G1/S (log2)” value is 0.166. Besides, the values for the melting temperature with HeLa Kyoto [2] (cell cycle stage: G1/S) and in the data set with HeLa Kyoto [2] (cell cycle stage: mitosis) were 48.6 °C and 49 °C, respectively. In addition, the thermal stability score in the data set on HeLa Kyoto [3] (setting [5]) stood at 0.55; in the data set with HeLa Kyoto [3] (cell cycle stage: mitosis), 2.63. Moreover, the “solubility change mitosis (log2)” value with HeLa Kyoto [4] was found to be 0.199.

For the substance “MGKKYKNIVLLKGLEVINDYHFRMVKSLLSNDLKLNLKMREEYDKIQIADLMEEKFRGDAGLGKLIKIFEDIPTLEDLAETLKKEKLKVKGPALSRKRKKEVDATSPAPSTSSTVKTEGAEATPGAQKRKKSTKEKAGPKGSKVSEEQTQPPSPAGAGMSTAMGRSPSPKTSLSAPPNSSSTENPKTVAKCQVTPRRNVLQKRPVIVKVLSTTKPFEYETPEMEKKIMFHATVATQTQFFHVKVLNTSLKEKFNGKKIIIISDYLEYDSLLEVNEESTVSEAGPNQTFEVPNKIINRAKETLKIDILHKQASGNIVYGVFMLHKKTVNQKTTIYEIQDDRGKMDVVGTGQCHNIPCEEGDKLQLFCFRLRKKNQMSKLISEMHSFIQIKKKTNPRNNDPKSMKLPQEQRQLPYPSEASTTFPESHLRTPQMPPTTPSSSFFTKKSEDTISKMNDFMRMQILKEGSHFPGPFMTSIGPAESHPHTPQMPPSTPSSSFLTTKSEDTISKMNDFMRMQILKEGSHFPGPFMTSIGPAESHPHTPQMPPSTPSSSFLTTLKPRLKTEPEEVSIEDSAQSDLKEVMVLNATESFVYEPKEQKKMFHATVATENEVFRVKVFNIDLKEKFTPKKIIAIANYVCRNGFLEVYPFTLVADVNADRNMEIPKGLIRSASVTPKINQLCSQTKGSFVNGVFEVHKKNVRGEFTYYEIQDNTGKMEVVVHGRLTTINCEEGDKLKLTCFELAPKSGNTGELRSVIHSHIKVIKTRKNKKDILNPDSSMETSPDFFF [IFI16]”, the “solubility in G1/S (log2)” value with HeLa Kyoto [1] is -0.293. The values for the melting temperature with HeLa Kyoto [2] (cell cycle stage: G1/S) and with HeLa Kyoto [2] (cell cycle stage: mitosis) were 46.8 °C and 49.1 °C, respectively. Besides, the figures for the thermal stability score in the data set with HeLa Kyoto [3] (setting [5]) and with HeLa Kyoto [3] (cell cycle stage: mitosis) were 3.09 and 5.43, respectively. Also, the “solubility change mitosis (log2)” value in the data set on HeLa Kyoto [4] stood at 0.318.

With “MDDKELIEYFKSQMKEDPDMASAVAAIRTLLEFLKRDKGETIQGLRANLTSAIETLCGVDSSVAVSSGGELFLRFISLASLEYSDYSKCKKIMIERGELFLRRISLSRNKIADLCHTFIKDGATILTHAYSRVVLRVLEAAVAAKKRFSVYVTESQPDLSGKKMAKALCHLNVPVTVVLDAAVGYIMEKADLVIVGAEGVVENGGIINKIGTNQMAVCAKAQNKPFYVVAESFKFVRLFPLNQQDVPDKFKYKADTLKVAQTGQDLKEEHPWVDYTAPSLITLLFTDLGVLTPSAVSDELIKLYL [EIF2B1]”, in the data set with HeLa Kyoto [1], the “solubility in G1/S (log2)” value came to 0.101. For the same substance, the melting temperature with HeLa Kyoto [2] (cell cycle stage: G1/S) came to 57.1 °C; in the data set on HeLa Kyoto [2] (cell cycle stage: mitosis), 55.4 °C. For the same substance, the thermal stability score with HeLa Kyoto [3] (setting [5]) was -1.83; with HeLa Kyoto [3] (cell cycle stage: mitosis), -1.69. In addition, the “solubility change mitosis (log2)” value in the data set on HeLa Kyoto [4] was -0.134.

TPR: the “solubility in G1/S (log2)” value in the data set on HeLa Kyoto [1] was -0.23. Moreover, the results for the melting temperature in the data set on HeLa Kyoto [2] (cell cycle stage: G1/S) and in the data set with HeLa Kyoto [2] (cell cycle stage: mitosis) were 50.3 °C and 50.8 °C, respectively. The figures for the thermal stability score in the data set on HeLa Kyoto [3] (setting [5]) and in the data set on HeLa Kyoto [3] (cell cycle stage: mitosis) were -1.4 and 0.657, respectively. Moreover, the “solubility change mitosis (log2)” value with HeLa Kyoto [4] was determined as 0.191.

Take “MDVERLQEALKDFEKRGKKEVCPVLDQFLCHVAKTGETMIQWSQFKGYFIFKLEKVMDDFRTSAPEPRGPPNPNVEYIPFDEMKERILKIVTGFNGIPFTIQRLCELLTDPRRNYTGTDKFLRGVEKNVMVVSCVYPSSEKNNSNSLNRMNGVMFPGNSPSYTERSNINGPGTPRPLNRPKVSLSAPMTTNGLPESTDSKEANLQQNEEKNHSDSSTSESEVSSVSPLKNKHPDEDAVEAEGHEVKRLRFDKEGEVRETASQTTSSEISSVMVGETEASSSSQDKDKDSRCTRQHCTEEDEEEDEEEEEESFMTSREMIPERKNQEKESDDALTVNEETSEENNQMEESDVSQAEKDLLHSEGSENEGPVSSSSSDCRETEELVGSNSSKTGEILSESSMENDDEATEVTDEPMEQD [PPP4R2]”: the “solubility in G1/S (log2)” value in the data set with HeLa Kyoto [1] worked out at 0.000183. The figures for the melting temperature in the data set on HeLa Kyoto [2] (cell cycle stage: G1/S) and in the data set on HeLa Kyoto [2] (cell cycle stage: mitosis) were 51.2 °C and 51.7 °C, respectively. Also, the results for the thermal stability score with HeLa Kyoto [3] (setting [5]) and in the data set with HeLa Kyoto [3] (cell cycle stage: mitosis) were -0.271 and -0.968, respectively. The “solubility change mitosis (log2)” value in the data set on HeLa Kyoto [4] is -0.111.
